Data from publication PMC10786891, “Massively parallel profiling of RNA-targeting CRISPR-Cas13d”.
Positions count from the first letter of the chain named. In names and notes the source's numbering stands.

T1: EsCas13d, nuclease-dead (Eubacterium siraeum, UniProt B0MS50, R295A;H300A;R849A;H854A)
T1 sequence: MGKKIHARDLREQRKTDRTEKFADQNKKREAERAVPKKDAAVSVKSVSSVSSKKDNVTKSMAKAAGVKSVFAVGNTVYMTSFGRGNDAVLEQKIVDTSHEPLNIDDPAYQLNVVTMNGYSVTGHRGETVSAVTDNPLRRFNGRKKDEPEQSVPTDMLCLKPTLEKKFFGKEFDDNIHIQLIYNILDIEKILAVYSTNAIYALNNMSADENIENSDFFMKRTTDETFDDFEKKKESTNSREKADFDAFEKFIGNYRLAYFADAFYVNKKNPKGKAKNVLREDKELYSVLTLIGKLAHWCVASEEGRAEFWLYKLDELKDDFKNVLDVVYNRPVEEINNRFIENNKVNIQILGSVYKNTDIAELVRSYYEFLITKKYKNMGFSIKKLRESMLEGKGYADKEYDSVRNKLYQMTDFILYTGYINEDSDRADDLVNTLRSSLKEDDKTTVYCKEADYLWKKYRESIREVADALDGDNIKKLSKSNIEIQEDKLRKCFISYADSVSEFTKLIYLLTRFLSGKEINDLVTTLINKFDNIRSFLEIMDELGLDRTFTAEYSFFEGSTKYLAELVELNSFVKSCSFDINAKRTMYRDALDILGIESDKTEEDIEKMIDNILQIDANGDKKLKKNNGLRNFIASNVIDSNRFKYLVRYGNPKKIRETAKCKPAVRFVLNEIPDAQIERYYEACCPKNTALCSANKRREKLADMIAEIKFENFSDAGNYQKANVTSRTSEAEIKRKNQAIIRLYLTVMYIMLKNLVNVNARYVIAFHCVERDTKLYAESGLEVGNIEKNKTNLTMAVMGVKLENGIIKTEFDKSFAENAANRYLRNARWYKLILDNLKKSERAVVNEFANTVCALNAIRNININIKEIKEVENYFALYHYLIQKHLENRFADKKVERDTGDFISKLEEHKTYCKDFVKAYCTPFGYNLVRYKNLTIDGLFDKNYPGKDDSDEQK

B1: target 1 insC 3' of 10,insG 3' of 10 (mixed)
RNA 1: CACCCGUGCAAAAAUGCAGGGGUCUAAAACUGAGCGGAUAACCUCUCUAUGG
RNA 2: GGGAAUGGAUCCACAUCUACGAAUUCGUACCAUAGAGAGGUUCGAUCCGCUCACCGAGAUCGGAAGAGCACACGU
B2: target 1 U3G,A18U (mixed)
RNA 1: B1 RNA 1
RNA 2: GGGAAUGGAUCCACAUCUACGAAUUCGUACCAUUGAGAGGUUAUCCGCGCACCGAGAUCGGAAGAGCACACGU
B3: target 1 insA 3' of 17,insG 3' of 10 (mixed)
RNA 1: B1 RNA 1
RNA 2: B1 RNA 2 with G37A, A38G, G39A, U41G, C43U
B4: target 1 insU 3' of 12,insU 3' of 9 (mixed)
RNA 1: B1 RNA 1
RNA 2: B1 RNA 2 with C43U, G44A, A45U
B5: target 1 insU 3' of 13,insA 3' of 7 (mixed)
RNA 1: B1 RNA 1
RNA 2: B1 RNA 2 with G40U, U41G, C43U, G44A, A45U, U46C, C47A
B6: target 1 insU 3' of 15,insC 3' of 14 (mixed)
RNA 1: B1 RNA 1
RNA 2: B1 RNA 2 with A38U, G39A, G40C, U41G, U42G, C43U, G44U
B7: target 1 insC 3' of 14,insG 3' of 11 (mixed)
RNA 1: B1 RNA 1
RNA 2: B1 RNA 2 with G39C, U41G, C43G, G44U
B8: target 1 G15A,A16C (mixed)
RNA 1: B1 RNA 1
RNA 2: B2 RNA 2 with U34A, A36C, G37A, G49U
B9: target 1 C2A,A18G (mixed)
RNA 1: B1 RNA 1
RNA 2: B2 RNA 2 with U34G, G49U, C50A
B10: target 1 insG 3' of 18,insG 3' of 9 (mixed)
RNA 1: B1 RNA 1
RNA 2: B1 RNA 2 with A36G, G37A, A38G, G39A, U41G, C43U, G44A, A45G
B11: target 1 insA 3' of 7,insA 3' of 7 (mixed)
RNA 1: B1 RNA 1
RNA 2: B1 RNA 2 with C43A, G44U, A45C, U46A, C47A
B12: target 1 insG 3' of 11,insA 3' of 6 (mixed)
RNA 1: B1 RNA 1
RNA 2: B1 RNA 2 with U42G, C43U, G44A, A45U, U46C, C48A
B13: target 1 del3,del14 (mixed)
RNA 1: B1 RNA 1
RNA 2: GGGAAUGGAUCCACAUCUACGAAUUCGUACCAUAGAGGGUUAUCCGCCACCGAGAUCGGAAGAGCACACGU
B14: target 1 U3C,A9C (mixed)
RNA 1: B1 RNA 1
RNA 2: B2 RNA 2 with U34A, A43C, G49C
B15: target 1 insC 3' of 20,insG 3' of 2 (mixed)
RNA 1: B1 RNA 1
RNA 2: GGGAAUGGAUCCACAUCUACGAAUUCGUACCACUAGAGAGGUUAUCCGCUCGACCGAGAUCGGAAGAGCACACGU
B16: target 1 complement block 4-10 (mixed)
RNA 1: B1 RNA 1
RNA 2: B2 RNA 2 with U34A, U42A, A43U, U44A, C45G, C46G, G47C, C48G, G49U
B17: target 1 U10C,G12U (mixed)
RNA 1: B1 RNA 1
RNA 2: B2 RNA 2 with U34A, G40U, U42C, G49U
B18: target 1 U3G,A16G (mixed)
RNA 1: B1 RNA 1
RNA 2: B2 RNA 2 with U34A, A36G
B19: target 1 C6A,C7U (mixed)
RNA 1: B1 RNA 1
RNA 2: B2 RNA 2 with U34A, C45U, C46A, G49U
B20: target 1 insU 3' of 14,insG 3' of 11 (mixed)
RNA 1: B1 RNA 1
RNA 2: B1 RNA 2 with G39U, U41G, C43G, G44U
B21: target 1 insU 3' of 21,insG 3' of 10 (mixed)
RNA 1: B1 RNA 1
RNA 2: GGGAAUGGAUCCACAUCUACGAAUUCGUACCUAUAGAGAGGUUGAUCCGCUCACCGAGAUCGGAAGAGCACACGU
B22: target 1 insC 3' of 11,insG 3' of 2 (mixed)
RNA 1: B1 RNA 1
RNA 2: B15 RNA 2 with C33U, U34A, A35G, G36A, A37G, G38A, A39G, G41U, U42C
B23: target 1 C6U,C22U (mixed)
RNA 1: B1 RNA 1
RNA 2: B2 RNA 2 with C30U, U34A, C46U, G49U
B24: target 1 insU 3' of 20,insG 3' of 6 (mixed)
RNA 1: B1 RNA 1
RNA 2: B15 RNA 2 with C33U, C49G, U50C, C51U, G52C
B25: target 1 C6U,U11G (mixed)
RNA 1: B1 RNA 1
RNA 2: B2 RNA 2 with U34A, U41G, C46U, G49U
B26: target 1 G5U,A9U (mixed)
RNA 1: B1 RNA 1
RNA 2: B2 RNA 2 with U34A, A43U, G47U, G49U
B27: target 1 U3G,A14C (mixed)
RNA 1: B1 RNA 1
RNA 2: B2 RNA 2 with U34A, A38C
B28: target 1 C2A,G5C (mixed)
RNA 1: B1 RNA 1
RNA 2: B2 RNA 2 with U34A, G47C, G49U, C50A
B29: target 1 insG 3' of 11 (mixed)
RNA 1: B1 RNA 1
RNA 2: GGGAAUGGAUCCACAUCUACGAAUUCGUACCAUAGAGAGGUGUAUCCGCUCACCGAGAUCGGAAGAGCACACGU
B30: target 1 insG 3' of 22,insC 3' of 5 (mixed)
RNA 1: B1 RNA 1
RNA 2: B15 RNA 2 with C31G, A32C, C33A, U50C, C51U, G52C
B31: target 1 U3G,U10A (mixed)
RNA 1: B1 RNA 1
RNA 2: B2 RNA 2 with U34A, U42A
B32: target 1 insG 3' of 21,insU 3' of 18 (mixed)
RNA 1: B1 RNA 1
RNA 2: B21 RNA 2 with U32G, G36U, A37G, G38A, A39G, G40A, U42G, G44U
B33: target 1 insC 3' of 11,insG 3' of 10 (mixed)
RNA 1: B1 RNA 1
RNA 2: B1 RNA 2 with U42C, C43U
B34: target 1 C6A,U8C (mixed)
RNA 1: B1 RNA 1
RNA 2: B2 RNA 2 with U34A, U44C, C46A, G49U

What follows are binders tested against T1, EsCas13d, nuclease-dead (assay: crRNA (strand 1, pre-loaded); Mg2+; 40 mM Tris-HCl pH 7.5, 150 mM NaCl, 6 mM MgCl2, 1 mM DTT, 0.1% Tween-20, 0.2 mg/ml BSA; 25 C; 10 min per concentration, then washed). Details: tags: His6-TwinStrep-SUMO cleaved; N-terminal SNAP kept (SNAP-Surface 488); label: 3' end held by stalled T7 RNA polymerase.

| Binder | Kd |
| --- | --- |
| B1 | 13.6 ± 0.5 nM |
| B2 | 20.5 ± 1.3 nM |
| B3 | 43 ± 9 nM |
| B4 | 29 ± 5 nM |
| B5 | 13.6 ± 0.6 nM |
| B6 | 43 ± 6 nM |
| B7 | 57 ± 13 nM |
| B8 | 30.5 ± 2.7 nM |
| B9 | 64 ± 18 nM |
| B10 | 49 ± 8 nM |
| B11 | 7 ± 0.5 nM |
| B12 | 94 ± 29 nM |
| B13 | 44 ± 4 nM |
| B14 | 28.4 ± 3 nM |
| B15 | 11.6 ± 0.5 nM |
| B16 | 13.4 ± 0.4 nM |
| B17 | 24 ± 4 nM |

| Binder | Kd |
| --- | --- |
| B18 | 27.1 ± 1.5 nM |
| B19 | 7.1 ± 0.5 nM |
| B20 | 80 ± 40 nM |
| B21 | 82 ± 23 nM |
| B22 | 42 ± 14 nM |
| B23 | 14.8 ± 1.9 nM |
| B24 | 16.3 ± 0.9 nM |
| B25 | 16.2 ± 0.9 nM |
| B26 | 97 ± 20 nM |
| B27 | 28.6 ± 1.8 nM |
| B28 | 6.52 ± 0.32 nM |
| B29 | 33.3 ± 3.1 nM |
| B30 | 67 ± 23 nM |
| B31 | 17.2 ± 1.3 nM |
| B32 | 77 ± 22 nM |
| B33 | 23.4 ± 2.5 nM |
| B34 | 10.7 ± 0.6 nM |
